± gives the standard error. Variants at the floor of the assay were thinned out.
B1: glmS ribozyme (parent)
chain: AUAAAAGCGCCAGAACUACAGAAAUGUAGUUGACGAGGAGGAGGUUUAUCGAAUUUUCGGCGGAUGCCUCCAAA

Assays:
Details in all cases: with glucosamine-6-phosphate
glucosamine-6-phosphate [1] = variants of: B1; assay: self-cleavage kobs at 160 uM GlcN6P; higher = faster cleavage; RNA array
How it was run: (§1)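 Ribozyme variants carrying barcodes were transcribed in situ on sequenced MiSeq chips by E. coli RNA polymerase and tracked at 37 °C with a hybridised Cy3 probe. They were exposed to 40 μM to 10 mM glucosamine-6-phosphate in HEPES/KCl/Mg(OAc)2 buffer. kobs came from exponential decay fits of normalised per-tile medians, and kcat and KM from weighted Michaelis–Menten fits.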

glucosamine-6-phosphate [2] = variants of: B1; assay: self-cleavage kobs at 640 uM GlcN6P; higher = faster cleavage; RNA array
How it was run: as §1

glucosamine-6-phosphate [3] = variants of: B1; assay: self-cleavage kobs at 2500 uM GlcN6P; higher = faster cleavage; RNA array
How it was run: as §1

glucosamine-6-phosphate [4] = variants of: B1; assay: self-cleavage kobs at 10000 uM GlcN6P; higher = faster cleavage; RNA array
How it was run: as §1

Variant	self-cleavage kobs at 160 uM GlcN6P (glucosamine-6-phosphate [1])	self-cleavage kobs at 640 uM GlcN6P (glucosamine-6-phosphate [2])	self-cleavage kobs at 2500 uM GlcN6P (glucosamine-6-phosphate [3])	self-cleavage kobs at 10000 uM GlcN6P (glucosamine-6-phosphate [4])
AUAAAAGCGCCAGAACUACAGAAAUGUAGUUGUCGAGGAGGAGGUUUAUCGAUUUUUCGGCGGAUGCCGCCAAA [A33U A53U U69G]	3.89e-05 ± 1.8e-05 s⁻¹	0.000215 ± 7.6e-05 s⁻¹	5.61e-05 ± 2.6e-05 s⁻¹	–
AUAAAAGCGCCAGACGUACAGAAAUGUAGUUGACGAGGAGGAGGUUUAUGGAAUUUUCGGCGGCUGCCUCCAAA [A15C C16G C50G A64C]	0.000208 ± 6.7e-05 s⁻¹	7.03e-05 ± 2.7e-05 s⁻¹	5.92e-05 ± 1.8e-05 s⁻¹	–
AUAAAAGCGCCUGAACUACAGAAAUGUAGUUGACGAGGAGGAGAUUUAUCGAAUUUUCGGCGGAGGUCUCCAAA [A12U G44A U65G C67U]	0.000241 ± 6.5e-05 s⁻¹	0.000969 ± 0.00016 s⁻¹	0.00188 ± 0.00037 s⁻¹	–
AUAAAAGCGCCAGAACUACAGAAAUGUAGUUGUCGAUGAGGAAGUUUAUCGAAUUUUCGGCGGAUGCCUCCAAA [A33U G37U G43A]	< 1e-05 s⁻¹	–	–	–
AUAAAAGCGCCAGAACUACAGAAAUGUAGAUGACGAGGAGGAGGUUUAUCGAAUUUUCGGCGAAUGCCUCCAAA [U30A G63A]	< 1e-05 s⁻¹	< 1e-05 s⁻¹	< 1e-05 s⁻¹	< 1e-05 s⁻¹
AUAAAAGCGCCAGAACUACAGAAAUGUAGUUGACGAGGAGGAUGUUUAACGUAUUUUCGGCGGAUGCCUCCAAA [G43U U49A A52U]	< 1e-05 s⁻¹	< 1e-05 s⁻¹	< 1e-05 s⁻¹	–
AUAAAAGCUCCAGAACUACAGAAAUGUAGUUGACGAGGAGGAGGUUUAUCGAAUUCUCGGCCGAUGCCUCCAAA [G9U U56C G62C]	< 1e-05 s⁻¹	< 1e-05 s⁻¹	–	–
AUAAAUGCGCCAGAACUACAGAAAUGUAGUUGACGAGGAGGAGGCUUAUCGAAUUUUCGGCGGAUGCCUCCAAA [A6U U45C]	< 1e-05 s⁻¹	< 1e-05 s⁻¹	–	–
AUAAAAGCGCCAGAACUACAGAAAUGUAGUUGACGAGGAGGAGGUAUAUCGAAUUUUCGGCGGAGGCCUCCAAA [U46A U65G]	0.000293 ± 6.7e-05 s⁻¹	0.000975 ± 0.00016 s⁻¹	0.00122 ± 0.00021 s⁻¹	0.00301 ± 0.00058 s⁻¹
AUAAAAGCGCCAGAACUACAGAAAUGUAGUUGACGAGGAGGAGGUUUAUCGAAUUUCCGGCCGAUGCCUCCAAA [U57C G62C]	< 1e-05 s⁻¹	< 1e-05 s⁻¹	< 1e-05 s⁻¹	< 1e-05 s⁻¹
AUAAACGCGACAGAACUACAGAAAUGUAGUUGACAAGGAGGAGGUUUAUCGAAUUUUGGGCGGAUGCCUGCAAA [A6C C10A G35A C58G C70G]	4.89e-05 ± 2.3e-05 s⁻¹	0.000553 ± 0.00014 s⁻¹	0.000134 ± 4.9e-05 s⁻¹	–
AUAAAAGCGCCAGAACUACAGAAAUGUAGUUGACUAGGAGGAGGUUUAUCGAAUUUUAGGCGGAUGCCUCGAAA [G35U C58A C71G]	< 1e-05 s⁻¹	< 1e-05 s⁻¹	–	–
AUAAAAGCGCCAGAACUACAGAAAUGUAGUUGAAGAGGAGGAGGAUUAUCGAAUUUUCGGCGGAUGCCUUCAAA [C34A U45A C70U]	< 1e-05 s⁻¹	< 1e-05 s⁻¹	< 1e-05 s⁻¹	–
AUAAAAGCGCCAGAACUACAGAAAUGUAGUUGACGAGGAGAAGGUUUAUCGAGUUUUCGGCGGAUGCCUCCAAA [G41A A53G]	0.000343 ± 7e-05 s⁻¹	0.000842 ± 0.00015 s⁻¹	0.00129 ± 0.00028 s⁻¹	0.00427 ± 0.00084 s⁻¹
AUAAAAGCGCCAGGACUACAGAAAUGUACUUGACGAGGAGGAGGUUUAUCGAAUUUUCGGUGGAUGCCUCUAAA [A14G G29C C61U C71U]	< 1e-05 s⁻¹	< 1e-05 s⁻¹	–	< 1e-05 s⁻¹
AUAAAAGCGCGAGAACUACAGAAAUGUAGUUGACGAGGAGGAGGUUUAUCGAAUUUUCGGCGGUAGCCUCCAAA [C11G A64U U65A]	< 1e-05 s⁻¹	< 1e-05 s⁻¹	< 1e-05 s⁻¹	–
AUAAAAGCGCCAGUACUACAGAAAUGUAAUUGACGAGGAGGAGGUUUAUCGCAUUUUCGGUGGAUGCAUCGAAA [A14U G29A A52C C61U C68A C71G]	0.000123 ± 3.3e-05 s⁻¹	9.79e-05 ± 2.9e-05 s⁻¹	0.00014 ± 5e-05 s⁻¹	–
AUAAAAGCGCUAGAACUACAGAAAUGUAGUUGACGAGGAGGAGGUUAAUCGAAUUUUCGGCGGAUGCCUCCAAA [C11U U47A]	9.6e-05 ± 3.1e-05 s⁻¹	0.000187 ± 4.3e-05 s⁻¹	0.0014 ± 0.00025 s⁻¹	0.0016 ± 0.00047 s⁻¹
AUAAAAGCGCCGGAACUACAGAAAUGUAGUUGACGCGGAGGAGGUUUAUCGAAUUUUCGGCGGAUCCGUCCAAA [A12G A36C G66C C68G]	< 1e-05 s⁻¹	–	–	–
AUAAAAGCGCAAGAACUACAGAAAUGUAGUUGACGAGGUGGAGGUUUAUCGAAUUUUCGGUGGAUGCCUGCAAA [C11A A39U C61U C70G]	< 1e-05 s⁻¹	< 1e-05 s⁻¹	< 1e-05 s⁻¹	–
AUAAAAGCGCCAGAACUACAGAAAUGUAGUUGACGAGGAGGAGGUUUAUCGAAUUUUCGGCAUAUGUCUCCAAA [G62A G63U C67U]	< 1e-05 s⁻¹	< 1e-05 s⁻¹	–	–
AUAAAAGCGCCAGAACUACAGAAAUGUAGUUGACGCGGAGGAGGUUUAUCGAAUUUUCAGCGGAUGCCUCGAAA [A36C G59A C71G]	< 1e-05 s⁻¹	–	–	< 1e-05 s⁻¹
AUAAAAGCGCCAGAACUACAGAAAUGUAGUUCACGAGGAGGGGGUUUAUCGAAUUUUCGGCGGUUGCCUCCAAA [G32C A42G A64U]	< 1e-05 s⁻¹	< 1e-05 s⁻¹	< 1e-05 s⁻¹	–
AUAAAAGCGCCAGAACUACAGAAAUGUAGUUGACGAGGAGGAGGUUUAUCGAAGUUUCGGCGGAUGCAUCCAAA [U54G C68A]	6.58e-05 ± 2.7e-05 s⁻¹	6.59e-05 ± 2.9e-05 s⁻¹	0.000107 ± 2.7e-05 s⁻¹	–
AUAAAAGCGCCAGAACUACAGAAAUGUAGUUGACGAGGAGGAGGUUUAUGGAAUUUUCGGCGGAUGGCUCCAAA [C50G C67G]	7.32e-05 ± 1.3e-05 s⁻¹	5e-05 ± 7.7e-06 s⁻¹	–	–
AUAAAAGCGCCAGCACUACAGAAAUGUAGUUGACGUGCGGGAGGUUUAUCGAAUUUUCGGCGGAUGCCUCCAAA [A14C A36U G38C A39G]	< 1e-05 s⁻¹	–	< 1e-05 s⁻¹	–
AUAAAAUCGCCCGAACUACAGAAAUGUAGUUGACGAGGAGAAGGUUUAUCGAAUUUUCGGCGGAUGCCUCCAAA [G7U A12C G41A]	< 1e-05 s⁻¹	–	< 1e-05 s⁻¹	–
